From patent publication US20240294622A1 (SUZHOU TRANSCENTA THERAPEUTICS, published 2024)
Substitutions are numbered along the chain they refer to.

Legend:
[1] = target: T1, human Gremlin_Q27P/N33T (C-terminal His-tag) (human, UniProt O60565 25-184 at identity 1.00)); assay: BLI (Octet): antibody loaded on AHC sensor, supernatant of the gremlin variant as analyte
T1 construct: culture supernatant used
T1 chain: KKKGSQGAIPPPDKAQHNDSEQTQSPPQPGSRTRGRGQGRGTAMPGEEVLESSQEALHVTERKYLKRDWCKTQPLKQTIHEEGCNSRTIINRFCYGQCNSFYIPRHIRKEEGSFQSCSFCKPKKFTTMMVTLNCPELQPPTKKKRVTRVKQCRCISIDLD
Description: (§1) The supernatant for Gremlin WT and mutants to be tested were added in the Association Column of the plate, 100 ul per well. Media or KD buffer was used as a reference control. Put AHC sensors in the 1st Baseline Column for 60 s to get the 1st baseline, then in the Loading Column for 300 s to capture the Gremlin antibody. After that, put the sensors in the 2nd Baseline Column for 60 s to get the 2nd baseline. Then put them in the Association Column for 300 s to let Gremlin/Gremlin Ab associate completely, put the sensors in the dissociation Column for 300 s. Analyze the group data by ForteBio (Octet96)

[2] = target: T2, human Gremlin_Q27P (C-terminal His-tag) (human, UniProt O60565 25-184); assay: as above
T2 construct: culture supernatant used
T2 chain: T1 chain with T33N
Description: as §1

[3] = target: T3, human Gremlin N33T (C-terminal His-tag) (human, UniProt O60565 25-184); assay: as above
T3 construct: culture supernatant used
T3 chain: T1 chain with P27Q
Description: as §1

HGREM1-His (ACRO) = target: T4, HGREM1-His (ACRO) (human, UniProt O60565 25-184); assay: competition ELISA on captured human gremlin (Acro,0.5ug/ml), upper panel: hybridoma 14E3 titrated against a fixed amount of chimeric 22F1-C, bound chimeric antibody detected
T4 construct: Lys25-Asp184 of NP_037504 with C-terminal polyhistidine tag (ACRO GR1-H52H3); they are put here; also called hGREM1 (ACRO); human gremlin (ACRO)
T4 sequence: T1 chain with P27Q, T33N
Description: Epitope binning of anti-gremlin hybridoma antibodies were performed using a competition ELISA assay. Clear polystyrene plates (BEAVER) were coated with 100 μl/well of a 0.5 μg/ml hGREM1 (ACRO) in high pH coating buffer overnight at 4° C. Then the plates were washed once on an automatic plate washer using PBS+0.1% Tween 20 (Sigma). 100 μl of block solution consisting of PBS+1% BSA+1% normal goat serum+0.05% Tween 20 (Sigma) was added to each well and incubated at room temperature for 2 hours. Then 50 μl/well of 20 μg/ml saturated antibodies (hybridoma antibodies) in antibody dilution buffer (PBS+1% BSA+1% normal goat serum+0.01% Tween 20) were then added to each well of the plate and incubate for 1 hour. Then add 50 μl/well of 40 ng/ml competitive antibodies (chimeric antibodies, e.g., 14E3-C, 22F1-C, 56C11-C, and 69H5-C) to each well of the plate and incubate for another 1 hour at room temperature. […] The plates were read on a plate reader at 450 nm. The failure of the second antibody to bind in the presence of saturating quantities of the first antibody indicates the two antibodies were in the same epitope bin; the success of the second antibody to bind in the presence of the saturating quantities of the first antibody indicates the two antibodies were in different epitope bins. […]
The amount of chimeric antibody bound to gremlin were determined.

human gremlin-2 (R&D) = target: T5, human gremlin-2 (R&D) (human, UniProt Q9H772 22-168, limits assumed); assay: ELISA on coated human gremlin-2 (R&D, 0.5ug/ml), anti-mouse IgG-HRP
T5 construct: also called GREM2
T5 sequence (looked up): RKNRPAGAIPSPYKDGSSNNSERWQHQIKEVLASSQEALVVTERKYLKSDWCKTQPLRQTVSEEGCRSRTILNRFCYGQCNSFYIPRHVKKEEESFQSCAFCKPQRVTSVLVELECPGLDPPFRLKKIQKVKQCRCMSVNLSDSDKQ
Description: In addition, the specificity of the binding of 14E3 and a benchmark antibody was assessed with ELISA. Briefly, clear polystyrene plates (BEAVER) were coated with 100 μl/well of a […] hGREM1 (ACRO), or human gremlin-2 (R&D), human COCO (R&D) and human DAN protein (R&D) in high pH coating buffer overnight at 4° C. Then the plates were washed once on an automatic plate washer using PBS+0.1% Tween 20 (Sigma). 100 μl of block solution consisting of PBS+1% BSA+1% normal goat serum+0.5% Tween 20 (Sigma) was added to each well and incubated at room temperature for 2 hours. Then 100 ul of antibodies in antibody dilution buffer containing PBS+1% BSA+1% normal goat serum+0.01% Tween 20 starting from 2 μg/ml and then 5 fold serial dilution were added to each well of the plate and incubated for 1 hours at room temperature. Afterward the plates were washed three times with 200 ul of PBS+0.1% Tween20 followed by adding 100 μl/well 1:10000 Goat anti mouse IgG-HRP (Abcam), and incubate for 1 hour at room temperature. They were then washed 3× with PBS+0.1% Tween20. Finally, 100 µl/well of TMB (Pierce) was added to each well and after 5 minutes add 50 ul of stop solution to each well. The plates were read on a Multiscan FC microplate reader (Thermo Scientific) at […].

binding result [1]: binds | binding result [2]: binds | binding result [3]: binds | IC50 (read off the curve) (HGREM1-His (ACRO)): ~1 µg/mL | binding result (human gremlin-2 (R&D)): no binding (tested: 1 ug/ml)
B1: 14E3 (antibody, V domains shown)
VH: QIQLVQSGPELKKPGETVKISCKTSGSTFTTYGMAWMKQAPGKGLTWMGWINTLSGEPTYADDFKGRFAFSLKTSANTAYLQINNLKNEDAATYFCAREPMDYWGQGTSVIVSS
VL: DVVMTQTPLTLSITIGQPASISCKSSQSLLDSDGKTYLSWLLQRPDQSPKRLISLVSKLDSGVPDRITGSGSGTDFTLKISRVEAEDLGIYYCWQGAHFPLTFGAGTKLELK
notes: mouse hybridoma antibody; also called hybridoma 14E3; anti-gremlin1 antibody 14E3
